The target of this data set is T1, EB2 protein (endogenous target of CDKL5 in mouse brain), Q8R001.
T1 chain: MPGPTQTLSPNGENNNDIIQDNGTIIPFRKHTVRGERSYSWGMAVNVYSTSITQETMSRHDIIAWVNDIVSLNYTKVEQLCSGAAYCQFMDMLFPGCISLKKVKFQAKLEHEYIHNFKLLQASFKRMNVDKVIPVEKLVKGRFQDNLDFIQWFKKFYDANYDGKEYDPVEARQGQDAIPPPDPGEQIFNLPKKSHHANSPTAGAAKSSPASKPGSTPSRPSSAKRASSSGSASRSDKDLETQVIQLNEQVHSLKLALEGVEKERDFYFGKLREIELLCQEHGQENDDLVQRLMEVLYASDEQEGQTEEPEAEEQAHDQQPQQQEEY

B1: human CDKL5, isoform 1 (protein)
chain: MKIPNIGNVMNKFEILGVVGEGAYGVVLKCRHKETHEIVAIKKFKDSEENEEVKETTLRELKMLRTLKQENIVELKEAFRRRGKLYLVFEYVEKNMLELLEEMPNGVPPEKVKSYIYQLIKAIHWCHKNDIVHRDIKPENLLISHNDVLKLCDFGFARNLSEGNNANYTEYVATRWYRSPELLLGAPYGKSVDMWSVGCILGELSDGQPLFPGESEIDQLFTIQKVLGPLPSEQMKLFYSNPRFHGLRFPAVNHPQSLERRYLGILNSVLLDLMKNLLKLDPADRYLTEQCLNHPTFQTQRLLDRSPSRSAKRKPYHVESSTLSNRNQAGKSTALQSHHRSNSKDIQNLSVGLPRADEGLPANESFLNGNLAGASLSPLHTKTYQASSQPGSTSKDLTNNNIPHLLSPKEAKSKTEFDFNIDPKPSEGPGTKYLKSNSRSQQNRHSFMESSQSKAGTLQPNEKQSRHSYIDTIPQSSRSPSYRTKAKSHGALSDSKSVSNLSEARAQIAEPSTSRYFPSSCLDLNSPTSPTPTRHSDTRTLLSPSGRNNRNEGTLDSRRTTTRHSKTMEELKLPEHMDSSHSHSLSAPHESFSYGLGYTSPFSSQQRPHRHSMYVTRDKVRAKGLDGSLSIGQGMAARANSLQLLSPQPGEQLPPEMTVARSSVKETSREGTSSFHTRQKSEGGVYHDPHSDDGTAPKENRHLYNDPVPRRVGSFYRVPSPRPDNSFHENNVSTRVSSLPSESSSGTNHSKRQPAFDPWKSPENISHSEQLKEKEKQGFFRSMKKKKKKSQTVPNSDSPDLLTLQKSIHSASTPSSRPKEWRPEKISDLQTQSQPLKSLRKLLHLSSASNHPASSDPRFQPLTAQQTKNSFSEIRIHPLSQASGGSSNIRQEPAPKGRPALQLPGQMDPGWHVSSVTRSATEGPSYSEQLGAKSGPNGHPYNRTNRSRMPNLNDLKETAL
As for B1, the “EB2 phosphorylation (Cdkl5(D471fs) mouse brain, 3 months after AAV)” value is “showed robust hCDKL5 protein expression and EB2 phosphorylation 3 months later”; the “EB2 phosphorylation (Cdkl5(R59X) mouse brain, 3 months after AAV)” value was “showed robust hCDKL5 protein expression and EB2 phosphorylation 3 months later”; the “ability to phosphorylate EB2 (mouse brain)” value (shortened to “ability to phosphorylate EB2”) is listed as “All tested plasmids expressed well in mouse brain, showing minor differences in ability to phosphorylate EB2 (measurement of CDKL5 kinase activity)”; the “kinase activity, blotting for phosphorylated EB2 (Cdkl5-ko mouse brain, 3 months after AAV)” value is given as “human CDKL5 showed robust kinase activity when blotting for phosphorylated EB2 protein”. For the same protein, the “phosphorylation of EB2 (Western blot of mouse brain, pS222EB2)” value was “CDKL5 was fully active, as determined by its ability to phosphorylate its endogenous target EB2 protein”.

B2: human CDKL5, isoform 2 (protein)
chain: MKIPNIGNVMNKFEILGVVGEGAYGVVLKCRHKETHEIVAIKKFKDSEENEEVKETTLRELKMLRTLKQENIVELKEAFRRRGKLYLVFEYVEKNMLELLEEMPNGVPPEKVKSYIYQLIKAIHWCHKNDIVHRDIKPENLLISHNDVLKLCDFGFARNLSEGNNANYTEYVATRWYRSPELLLGAPYGKSVDMWSVGCILGELSDGQPLFPGESEIDQLFTIQKVLGPLPSEQMKLFYSNPRFHGLRFPAVNHPQSLERRYLGILNSVLLDLMKNLLKLDPADRYLTEQCLNHPTFQTQRLLDRSPSRSAKRKPYHVESSTLSNRNQAGKSTALQSHHRSNSKDIQNLSVGLPRADEGLPANESFLNGNLAGASLSPLHTKTYQASSQPGSTSKDLTNNNIPHLLSPKEAKSKTEFDFNIDPKPSEGPGTKYLKSNSRSQQNRHSFMESSQSKAGTLQPNEKQSRHSYIDTIPQSSRSPSYRTKAKSHGALSDSKSVSNLSEARAQIAEPSTSRYFPSSCLDLNSPTSPTPTRHSDTRTLLSPSGRNNRNEGTLDSRRTTTRHSKTMEELKLPEHMDSSHSHSLSAPHESFSYGLGYTSPFSSQQRPHRHSMYVTRDKVRAKGLDGSLSIGQGMAARANSLQLLSPQPGEQLPPEMTVARSSVKETSREGTSSFHTRQKSEGGVYHDPHSDDGTAPKENRHLYNDPVPRRVGSFYRVPSPRPDNSFHENNVSTRVSSLPSESSSGTNHSKRQPAFDPWKSPENISHSEQLKEKEKQGFFRSMKKKKKKSQTTDSTNGENPSIKKSLFPLFNSKNHLKHSSSLKKLPVVTPPMVPNSDSPDLLTLQKSIHSASTPSSRPKEWRPEKISDLQTQSQPLKSLRKLLHLSSASNHPASSDPRFQPLTAQQTKNSFSEIRIHPLSQASGGSSNIRQEPAPKGRPALQLPGQMDPGWHVSSVTRSATEGPSYSEQLGAKSGPNGHPYNRTNRSRMPNLNDLKETAL
Turning to B2, the “EB2 phosphorylation levels (Western blot, Cdkl5-ko mouse brain)” value (shortened to “EB2 phosphorylation levels”) is “EB2 phosphorylation levels generated by isoform 2 were slightly higher” and the “ability to phosphorylate EB2” value was “All tested plasmids expressed well in mouse brain, showing minor differences in ability to phosphorylate EB2 (measurement of CDKL5 kinase activity)”.

B3: human CDKL5, isoform 4 (protein)
chain: MKIPNIGNVMNKFEILGVVGEGAYGVVLKCRHKETHEIVAIKKFKDSEENEEVKETTLRELKMLRTLKQENIVELKEAFRRRGKLYLVFEYVEKNMLELLEEMPNGVPPEKVKSYIYQLIKAIHWCHKNDIVHRDIKPENLLISHNDVLKLCDFGFARNLSEGNNANYTEYVATRWYRSPELLLGAPYGKSVDMWSVGCILGELSDGQPLFPGESEIDQLFTIQKVLGPLPSEQMKLFYSNPRFHGLRFPAVNHPQSLERRYLGILNSVLLDLMKNLLKLDPADRYLTEQCLNHPTFQTQRLLDRSPSRNQAGKSTALQSHHRSNSKDIQNLSVGLPRADEGLPANESFLNGNLAGASLSPLHTKTYQASSQPGSTSKDLTNNNIPHLLSPKEAKSKTEFDFNIDPKPSEGPGTKYLKSNSRSQQNRHSFMESSQSKAGTLQPNEKQSRHSYIDTIPQSSRSPSYRTKAKSHGALSDSKSVSNLSEARAQIAEPSTSRYFPSSCLDLNSPTSPTPTRHSDTRTLLSPSGRNNRNEGTLDSRRTTTRHSKTMEELKLPEHMDSSHSHSLSAPHESFSYGLGYTSPFSSQQRPHRHSMYVTRDKVRAKGLDGSLSIGQGMAARANSLQLLSPQPGEQLPPEMTVARSSVKETSREGTSSFHTRQKSEGGVYHDPHSDDGTAPKENRHLYNDPVPRRVGSFYRVPSPRPDNSFHENNVSTRVSSLPSESSSGTNHSKRQPAFDPWKSPENISHSEQLKEKEKQGFFRSMKKKKKKSQTTDSTNGENPSIKKSLFPLFNSKNHLKHSSSLKKLPVVTPPMVPNSDSPDLLTLQKSIHSASTPSSRPKEWRPEKISDLQTQSQPLKSLRKLLHLSSASNHPASSDPRFQPLTAQQTKNSFSEIRIHPLSQASGGSSNIRQEPAPKGRPALQLPGQMDPGWHVSSVTRSATEGPSYSEQLGAKSGPNGHPYNRTNRSRMPNLNDLKETAL
Consider B3, for which the “EB2 phosphorylation levels” value is reported as “by isoforms three or 4 slightly lower compared to isoform 1” and the “ability to phosphorylate EB2” value is “All tested plasmids expressed well in mouse brain, showing minor differences in ability to phosphorylate EB2 (measurement of CDKL5 kinase activity)”.

B4: human CDKL5, isoform 3 (protein)
chain: MKIPNIGNVMNKFEILGVVGEGAYGVVLKCRHKETHEIVAIKKFKDSEENEEVKETTLRELKMLRTLKQENIVELKEAFRRRGKLYLVFEYVEKNMLELLEEMPNGVPPEKVKSYIYQLIKAIHWCHKNDIVHRDIKPENLLISHNDVLKLCDFGFARNLSEGNNANYTEYVATRWYRSPELLLGAPYGKSVDMWSVGCILGELSDGQPLFPGESEIDQLFTIQKVLGPLPSEQMKLFYSNPRFHGLRFPAVNHPQSLERRYLGILNSVLLDLMKNLLKLDPADRYLTEQCLNHPTFQTQRLLDRSPSRNQAGKSTALQSHHRSNSKDIQNLSVGLPRADEGLPANESFLNGNLAGASLSPLHTKTYQASSQPGSTSKDLTNNNIPHLLSPKEAKSKTEFDFNIDPKPSEGPGTKYLKSNSRSQQNRHSFMESSQSKAGTLQPNEKQSRHSYIDTIPQSSRSPSYRTKAKSHGALSDSKSVSNLSEARAQIAEPSTSRYFPSSCLDLNSPTSPTPTRHSDTRTLLSPSGRNNRNEGTLDSRRTTTRHSKTMEELKLPEHMDSSHSHSLSAPHESFSYGLGYTSPFSSQQRPHRHSMYVTRDKVRAKGLDGSLSIGQGMAARANSLQLLSPQPGEQLPPEMTVARSSVKETSREGTSSFHTRQKSEGGVYHDPHSDDGTAPKENRHLYNDPVPRRVGSFYRVPSPRPDNSFHENNVSTRVSSLPSESSSGTNHSKRQPAFDPWKSPENISHSEQLKEKEKQGFFRSMKKKKKKSQTVPNSDSPDLLTLQKSIHSASTPSSRPKEWRPEKISDLQTQSQPLKSLRKLLHLSSASNHPASSDPRFQPLTAQQTKNSFSEIRIHPLSQASGGSSNIRQEPAPKGRPALQLPGQMDPGWHVSSVTRSATEGPSYSEQLGAKSGPNGHPYNRTNRSRMPNLNDLKETAL
Take B4: the “EB2 phosphorylation levels” value is recorded as “by isoforms three or 4 slightly lower compared to isoform 1” and the “ability to phosphorylate EB2” value is recorded as “All tested plasmids expressed well in mouse brain, showing minor differences in ability to phosphorylate EB2 (measurement of CDKL5 kinase activity)”.

Values taken from patent publication US20230167455.
